# Reference: patent publication US20190248888A1, “METHODS OF LOWERING BLOOD GLUCOSE LEVELS” (Regeneron Pharmaceuticals, Inc., priority 2016, published 2019)
# B1: α-GCGR: potent monoclonal GCGR blocking antibody, HCVR/LCVR SEQ ID NOs: 86/88 (antibody, V domains shown)
# VH: EVQLVESGGGLVQPGGSLRLSCAASGFTFSNYLMNWVRQAPGKGLEWLANIQEDGIEKYYVDSVKGRFTISRDNAKNSLYLQMNSLRAEDTAVYYCAREPSHYDILTGYDYYYGMDVWGQGTTVTVS
# VL: DIQMTQSPSSLSASVGDRVTITCRASQGIRNDLGWYQQKPGKAPKRLIYAASSLQSGVPSRFSGSGSGTEFILTVSSLQPEDFATYYCLQYNSNPFTFGPGTKVDIK
# System: livers of mice
# Assay: RNAseq gene expression in liver of GCGR antibody treated mice
# Format: in vivo, mouse
# Settings: 21 days
# Experimental: All procedures were conducted in compliance with protocols approved by the Institutional Animal Care and Use Committee of Regeneron Pharmaceuticals. The in vitro and in vivo characteristics of REGN1193 (H4H1327P), a potent monoclonal GCGR blocking antibody has been previously described (See U.S. Pat. No. 8,545,847). This antibody was used as the exemplary glucagon signaling pathway antagonist in all studies in this report (See the HVCR/LCVR amino acid sequence pair of SEQ ID NOs: 86/88 in the present application. See also the corresponding heavy chain complementarity determining regions (HCDRs 1-2-3 of SEQ ID NOs: 72-74-76) and the corresponding light chain complementarity determining regions (LCDRs 1-2-3 of SEQ ID NOs: 80-82-84). The GCGR antibody and isotype control antibody were diluted with sterile PBS.
# Total RNA was purified from all samples using MagMAX™-96 for Microarrays Total RNA Isolation Kit (Ambion by Life Technologies) according to manufacturer's specifications. Genomic DNA was removed using MagMAX™Turbo™DNase Buffer and TURBO DNase from the MagMAX kit listed above (Ambion by Life Technologies). mRNA was purified from total RNA using Dynabeads® mRNA Purification Kit (Invitrogen). Strand-specific RNA-seq libraries were prepared using ScriptSeq™ mRNA-Seq Library Preparation Kit (Epicentre). Twelve-cycle PCR was performed to amplify libraries. Sequencing was performed on Illumina HiSeq®2000 (Illumina) by multiplexed single-read run with 33 cycles.
# Raw sequence data (BCL files) were converted to FASTQ format via Illumina Casava 1.8.2. Reads were decoded based on their barcodes and read quality was evaluated with FastQC (http://www.bioinformatics.babraham.ac.uk/projects/fastqc/). Reads were mapped to the mouse transcriptome (NCBI GRCh37) using CLC Genomics Workbench Version 7.0 (CLCbio) or TopHat2 (Version 2.0.10) allowing two mismatches. Reads mapped to the exons of a gene were summed at the gene level. To identify differentially expressed genes, the statistical significance (p-value) of the differential expressions was assessed with DESeq package (version 1.6 or 2.0).
# A key role of glucagon is to promote the uptake and metabolism of amino acids in the liver to provide gluconeogenic precursors. To further explore this pathway, a recently described fully human GCGR-blocking antibody (Okamato et al, 2015, Endocrinol. 156:2781-2794; See also, U.S. Pat. No. 8,545,847) derived using VelocImmune technology (Macdonald et al., 2014, PNAS 111:5147-5152; Murphy et al., 2014, PNAS 111:5153-5158) was used in the experiments provided herein. […] As shown previously (Mu et al., 2012, PLOS ONE 7:349572; Okamoto et al., 2015, Endocrinol. 156:2781-2794; Solloway et al., 2015, Cell Reports 12:495-510), and confirmed later in this study, these findings provide a mechanism for the elevated circulating amino acid levels that are observed in mice and monkeys with impaired GCGR signaling.
# [1] = liver of mice, 15 mg/kg α-GCGR vs control antibody
molecule,measurement,setting,value
B1,Aass Fold change,[1],−1.85
same,Abat Fold change,[1],−1.64
same,Acmsd Fold change,[1],−2.70
same,Agxt Fold change,[1],−2.17
same,Aldh4a1 Fold change,[1],−1.64
same,Aldoa Fold change,[1],−1.15
same,Arg1 Fold change,[1],−1.56
same,Asl Fold change,[1],−1.92
same,Ass1 Fold change,[1],−3.23
same,Bhmt Fold change,[1],−2.00
same,Cbs Fold change,[1],−1.85
same,Cps1 Fold change,[1],−1.96
same,Cth Fold change,[1],−3.12
same,Ddc Fold change,[1],−2.08
same,Eno1 Fold change,[1],−1.20
same,Fbp1 Fold change,[1],−1.67
same,G6pc Fold change,[1],−1.39
same,Gcat Fold change,[1],−1.67
same,Gldc Fold change,[1],−1.72
same,Gnmt Fold change,[1],−2.56
same,Got1 Fold change,[1],−8.33
same,Gpi1 Fold change,[1],1.03
same,Gpt Fold change,[1],−1.72
same,Hgd Fold change,[1],−1.75
same,Hpd Fold change,[1],−1.92
same,Ivd Fold change,[1],−1.56
same,Lap3 Fold change,[1],−1.56
same,Mat1a Fold change,[1],−2.04
same,Mpst Fold change,[1],−1.61
same,Nags Fold change,[1],−1.67
same,Oat Fold change,[1],−6.67
same,Otc Fold change,[1],−1.12
same,Pah Fold change,[1],−1.75
same,Pck1 Fold change,[1],−1.82
same,Pgam1 Fold change,[1],−1.20
same,Pgk1 Fold change,[1],−1.16
same,Prodh Fold change,[1],−1.67
same,Sardh Fold change,[1],−1.75
same,Sds Fold change,[1],−3.23
same,Slc1a2 Fold change,[1],−1.25
same,Slc3a1 Fold change,[1],−1.72
same,Slc3a2 Fold change,[1],−1.08
same,Slc6a9 Fold change,[1],1.45
same,Slc7a2 Fold change,[1],−2.27
same,Slc15a3 Fold change,[1],−1.12
same,Slc15a4 Fold change,[1],−1.15
same,Slc16a10 Fold change,[1],−1.28
same,Slc17a8 Fold change,[1],2.32
same,Slc25a12 Fold change,[1],1.27
same,Slc25a13 Fold change,[1],−1.27
same,Slc25a15 Fold change,[1],−1.92
same,Slc25a22 Fold change,[1],−1.56
same,Slc36a1 Fold change,[1],−1.41
same,Slc36a4 Fold change,[1],−1.18
same,Slc38a2 Fold change,[1],−1.08
same,Slc38a3 Fold change,[1],−1.75
same,Slc38a4 Fold change,[1],−1.56
same,Slc38a6 Fold change,[1],−1.09
same,Slc38a7 Fold change,[1],1.05
same,Slc38a9 Fold change,[1],1.17
same,Slc38a10 Fold change,[1],−1.04
same,Slc43a1 Fold change,[1],−2.78
same,Tat Fold change,[1],−4.35
same,Tpi1 Fold change,[1],−1.14
same,pcx Fold change,[1],−1.15
same,Aass expression RPKM,"liver of mice, 15 mg/kg α-GCGR",60.38 RPKM
same,Abat expression RPKM,"liver of mice, 15 mg/kg α-GCGR",43.18 RPKM
same,Acmsd expression RPKM,"liver of mice, 15 mg/kg α-GCGR",3.90 RPKM
same,Agxt expression RPKM,"liver of mice, 15 mg/kg α-GCGR",111.91 RPKM
same,Aldh4a1 expression RPKM,"liver of mice, 15 mg/kg α-GCGR",64.72 RPKM
same,Aldoa expression RPKM,"liver of mice, 15 mg/kg α-GCGR",16.24 RPKM
same,Arg1 expression RPKM,"liver of mice, 15 mg/kg α-GCGR",969.96 RPKM
same,Asl expression RPKM,"liver of mice, 15 mg/kg α-GCGR",151.51 RPKM
same,Ass1 expression RPKM,"liver of mice, 15 mg/kg α-GCGR",190.00 RPKM
same,Bhmt expression RPKM,"liver of mice, 15 mg/kg α-GCGR",98.73 RPKM
same,Cbs expression RPKM,"liver of mice, 15 mg/kg α-GCGR",126.52 RPKM
same,Cps1 expression RPKM,"liver of mice, 15 mg/kg α-GCGR",419.74 RPKM
same,Cth expression RPKM,"liver of mice, 15 mg/kg α-GCGR",139.77 RPKM
same,Ddc expression RPKM,"liver of mice, 15 mg/kg α-GCGR",15.03 RPKM
same,Eno1 expression RPKM,"liver of mice, 15 mg/kg α-GCGR",14.96 RPKM
same,Fbp1 expression RPKM,"liver of mice, 15 mg/kg α-GCGR",365.35 RPKM
same,G6pc expression RPKM,"liver of mice, 15 mg/kg α-GCGR",40.65 RPKM
same,Gcat expression RPKM,"liver of mice, 15 mg/kg α-GCGR",18.88 RPKM
same,Gldc expression RPKM,"liver of mice, 15 mg/kg α-GCGR",33.42 RPKM
same,Gnmt expression RPKM,"liver of mice, 15 mg/kg α-GCGR",449.55 RPKM
same,Got1 expression RPKM,"liver of mice, 15 mg/kg α-GCGR",9.98 RPKM
same,Gpi1 expression RPKM,"liver of mice, 15 mg/kg α-GCGR",16.58 RPKM
same,Gpt expression RPKM,"liver of mice, 15 mg/kg α-GCGR",103.74 RPKM
same,Hgd expression RPKM,"liver of mice, 15 mg/kg α-GCGR",109.59 RPKM
same,Hpd expression RPKM,"liver of mice, 15 mg/kg α-GCGR",874.17 RPKM
same,Ivd expression RPKM,"liver of mice, 15 mg/kg α-GCGR",51.86 RPKM
same,Lap3 expression RPKM,"liver of mice, 15 mg/kg α-GCGR",108.58 RPKM
same,Mat1a expression RPKM,"liver of mice, 15 mg/kg α-GCGR",525.98 RPKM
same,Mpst expression RPKM,"liver of mice, 15 mg/kg α-GCGR",17.32 RPKM
same,Nags expression RPKM,"liver of mice, 15 mg/kg α-GCGR",13.94 RPKM
same,Oat expression RPKM,"liver of mice, 15 mg/kg α-GCGR",66.76 RPKM
same,Otc expression RPKM,"liver of mice, 15 mg/kg α-GCGR",292.99 RPKM
same,Pah expression RPKM,"liver of mice, 15 mg/kg α-GCGR",232.16 RPKM
same,Pck1 expression RPKM,"liver of mice, 15 mg/kg α-GCGR",490.87 RPKM
same,Pgam1 expression RPKM,"liver of mice, 15 mg/kg α-GCGR",2.12 RPKM
same,Pgk1 expression RPKM,"liver of mice, 15 mg/kg α-GCGR",1.91 RPKM
same,Prodh expression RPKM,"liver of mice, 15 mg/kg α-GCGR",89.26 RPKM
same,Sardh expression RPKM,"liver of mice, 15 mg/kg α-GCGR",122.51 RPKM
same,Sds expression RPKM,"liver of mice, 15 mg/kg α-GCGR",39.47 RPKM
same,Slc1a2 expression RPKM,"liver of mice, 15 mg/kg α-GCGR",14.89 RPKM
same,Slc3a1 expression RPKM,"liver of mice, 15 mg/kg α-GCGR",9.78 RPKM
same,Slc3a2 expression RPKM,"liver of mice, 15 mg/kg α-GCGR",14.56 RPKM
same,Slc6a9 expression RPKM,"liver of mice, 15 mg/kg α-GCGR",10.29 RPKM
same,Slc7a2 expression RPKM,"liver of mice, 15 mg/kg α-GCGR",67.24 RPKM
same,Slc15a3 expression RPKM,"liver of mice, 15 mg/kg α-GCGR",1.15 RPKM
same,Slc15a4 expression RPKM,"liver of mice, 15 mg/kg α-GCGR",5.47 RPKM
same,Slc16a10 expression RPKM,"liver of mice, 15 mg/kg α-GCGR",14.93 RPKM
same,Slc17a8 expression RPKM,"liver of mice, 15 mg/kg α-GCGR",4.18 RPKM
same,Slc25a12 expression RPKM,"liver of mice, 15 mg/kg α-GCGR",4.68 RPKM
same,Slc25a13 expression RPKM,"liver of mice, 15 mg/kg α-GCGR",76.40 RPKM
same,Slc25a15 expression RPKM,"liver of mice, 15 mg/kg α-GCGR",50.85 RPKM
same,Slc25a22 expression RPKM,"liver of mice, 15 mg/kg α-GCGR",14.40 RPKM
same,Slc36a1 expression RPKM,"liver of mice, 15 mg/kg α-GCGR",3.90 RPKM
same,Slc36a4 expression RPKM,"liver of mice, 15 mg/kg α-GCGR",1.34 RPKM
same,Slc38a2 expression RPKM,"liver of mice, 15 mg/kg α-GCGR",17.59 RPKM
same,Slc38a3 expression RPKM,"liver of mice, 15 mg/kg α-GCGR",285.49 RPKM
same,Slc38a4 expression RPKM,"liver of mice, 15 mg/kg α-GCGR",261.42 RPKM
same,Slc38a6 expression RPKM,"liver of mice, 15 mg/kg α-GCGR",1.72 RPKM
same,Slc38a7 expression RPKM,"liver of mice, 15 mg/kg α-GCGR",4.41 RPKM
same,Slc38a9 expression RPKM,"liver of mice, 15 mg/kg α-GCGR",1.48 RPKM
same,Slc38a10 expression RPKM,"liver of mice, 15 mg/kg α-GCGR",19.58 RPKM
same,Slc43a1 expression RPKM,"liver of mice, 15 mg/kg α-GCGR",0.83 RPKM
same,Tat expression RPKM,"liver of mice, 15 mg/kg α-GCGR",197.67 RPKM
same,Tpi1 expression RPKM,"liver of mice, 15 mg/kg α-GCGR",46.09 RPKM
same,pcx expression RPKM,"liver of mice, 15 mg/kg α-GCGR",68.44 RPKM
same,"expression of genes involved in amino acid metabolism, urea cycle and gluconeogenesis","livers of mice, 15 mg/kg",reduced expression
same,expression of mitochondrial amino acid transporters Slc25a15 and Slc25a22,"livers of mice, 15 mg/kg",significantly reduced
same,"reduction of expression of plasma membrane amino acid transporters Slc38a3, Slc38a4, Slc7a2 and Slc3a1","livers of mice, 15 mg/kg",30-50%
